Measurements from patent publication US20140030286A1 (COMMISSARIAT A L ENERGIE ATOMIQUE ET AUX ENERGIES …, published 2014).

How the values were obtained:
[1] = molecular target: the molecule itself; assay: SDS-PAGE with and without 25 mM DTT, disulphide-linked homodimer (FIG. 12)
[2] = molecular target: the molecule itself; assay: gel filtration (S200 10/300GL), self-association
[3] = molecular target: T1, In (derivative of In without His tag, co-expressed with HisJo) (Streptococcus pneumoniae); assay: electrospray mass spectrometry of the purified complex (measured 25589, calculated 25606.03; loss of 17 Da)
T1 construct: Expressed from MCSII of pETDuet (pETDuet-In, pETDuet-HisJoIn); also called In peptide
T1 chain: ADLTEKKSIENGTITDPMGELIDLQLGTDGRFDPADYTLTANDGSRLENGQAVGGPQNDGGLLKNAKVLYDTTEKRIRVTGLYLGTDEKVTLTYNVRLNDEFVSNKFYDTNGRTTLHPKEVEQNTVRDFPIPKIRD

[4] = molecular target: T2, HisIn (Streptococcus pneumoniae); assay: electrospray mass spectrometry of the purified complex (measured 26772, calculated 26788.16)
T2 construct: Recombinant, made in E. coli from pACYCDuet-HisIn; also called In peptide; In protein
T2 chain: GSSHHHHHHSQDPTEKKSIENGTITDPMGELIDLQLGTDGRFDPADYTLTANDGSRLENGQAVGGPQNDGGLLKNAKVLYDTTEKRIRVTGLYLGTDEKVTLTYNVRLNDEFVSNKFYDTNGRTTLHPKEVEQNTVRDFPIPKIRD

B1: Jo-B1CK-In (other)
chain: MGSSHHHHHHSQDPSDQYPQTGTYPDVQTPYQIIKVDGSEKNGQHKALNPNPYERVIPEGTLSKRIYQVNNLDDNQYGIELTVSGKTVYEQKDGIPEISQRTTIVIQKQTFISQHSCVNSTELDELIQQIVAAINAGIIPLGNTSNQISKLTEKKSIENGTITDPMGELIDLQLGTDGRFDPADYTLTANDGSRLENGQAVGGPQNDGGLLKNAKVLYDTTEKRIRVTGLYLGTDEKVTLTYNVRLNDEFVSNKFYDTNGRTTLHPKEVEQNTVRDFPIPKIRD
notes: Circularised within the chain by the Jo-In isopeptide bond; Forms a disulphide-linked dimer through the cysteine of the B1CK loop; also called fusion Jo-B1CK-In; recombinant protein Jo-B1CK-In
[1]
  binding result: binds

B2: FusJoIn (other)
chain: GSSHHHHHHSQDPSDQYPQTGTYPDVQTPYQIIKVDGSEKNGQHKALNPNPYERVIPEGTLSKRIYQVNNLDDNQYGIELTVSGKTVYEQKDGSTPGSVTEKKSIENGTITDPMGELIDLQLGTDGRFDPADYTLTANDGSRLENGQAVGGPQNDGGLLKNAKVLYDTTEKRIRVTGLYLGTDEKVTLTYNVRLNDEFVSNKFYDTNGRTTLHPKEVEQNTVRDFPIPKIRD
notes: Single chain with the isopeptide bond inside the chain; Used as the control for the dimerisation of Jo-B1CK-In; also called FusJoIn complex; Jo-In fused via a linker of 7 amino acids
[2]
  binding result: no binding

B3: HisJo (peptide)
chain: GSSHHHHHHSQDPSDQYPQTGTYPDVQTPYQIIKVDGSEKNGQHKALNPNPYERVIPEGTLSKRIYQVNNLDDNQYGIELTVSGKTVYEQKD
notes: Recombinant, made in E. coli from pETDuet-HisJo; The Jo peptide is RrgA 144-218; the derivative has two more residues at each end; also called Jo peptide; Jo protein
[3]
  binding result: binds
[4]
  binding result: binds
